Test results published in the supplement of paper PMC9112550, “Optimization of the antimicrobial peptide Bac7 by deep mutational scanning” (BMC Biology, 2022).

The sequences below were run on Escherichia coli TOP10 (assay: shrunken log2 fold change of peptide-encoding DNA abundance (4.5 h post-induction vs induction); higher = less antimicrobial activity (less host growth inhibition)). Settings: time post-induction: 4.5 h; library: site-saturation at positions 5, 18, 19, 20.
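Also: peptides expressed intracellularly from a pBAD plasmid library in pooled LB shake-flask culture, induced with 0.3% L-arabinose, DNA abundance read by NGS, three biological replicates, DESeq2 with apeglm shrinkage.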

Row | Sequence | shrunken log2 fold change
1 | RRIRMRPPRLPRPRPRPCWGPRP | -0.078
2 | RRIRFRPPRLPRPRPRPFWFPRP | -0.275
3 | RRIRHRPPRLPRPRPRPEMIPRP | 0.0986
4 | RRIRLRPPRLPRPRPRPAGTPRP | 0.216
5 | RRIRWRPPRLPRPRPRPKQVPRP | 0.285
6 | RRIRWRPPRLPRPRPRPSEEPRP | 0.129
7 | RRIRIRPPRLPRPRPRPLKTPRP | 0.0161
8 | RRIRFRPPRLPRPRPRPNQDPRP | -0.361
9 | RRIRYRPPRLPRPRPRPDKIPRP | -0.155
10 | RRIRKRPPRLPRPRPRPRGYPRP | 0.166
11 | RRIRFRPPRLPRPRPRPTHEPRP | 0.171
12 | RRIRSRPPRLPRPRPRPWAMPRP | 0.0981
13 | RRIRFRPPRLPRPRPRPTGKPRP | 0.205
14 | RRIRHRPPRLPRPRPRPNKIPRP | -0.622
15 | RRIRGRPPRLPRPRPRPLFQPRP | 0.266
16 | RRIRRRPPRLPRPRPRPDPGPRP | -0.0599
17 | RRIRRRPPRLPRPRPRPYCKPRP | -0.24
18 | RRIRHRPPRLPRPRPRPMYYPRP | -0.681
19 | RRIRWRPPRLPRPRPRPVCKPRP | 0.643
20 | RRIRKRPPRLPRPRPRPKKCPRP | 0.405
21 | RRIRPRPPRLPRPRPRPIPAPRP | 0.342
22 | RRIRMRPPRLPRPRPRPEQAPRP | 4.07
23 | RRIRYRPPRLPRPRPRPAHAPRP | 0.154
24 | RRIRVRPPRLPRPRPRPMHEPRP | -0.044
25 | RRIRERPPRLPRPRPRPVAPPRP | 0.246

Row | Sequence | shrunken log2 fold change
26 | RRIRQRPPRLPRPRPRPHGMPRP | 0.0346
27 | RRIRDRPPRLPRPRPRPWHIPRP | -0.058
28 | RRIRDRPPRLPRPRPRPNSPPRP | -0.0573
29 | RRIRKRPPRLPRPRPRPQFKPRP | -0.037
30 | RRIRHRPPRLPRPRPRPLQNPRP | -0.00367
31 | RRIRIRPPRLPRPRPRPDKVPRP | -0.043
32 | RRIRDRPPRLPRPRPRPAFIPRP | -0.115
33 | RRIRARPPRLPRPRPRPQSRPRP | -0.112
34 | RRIRARPPRLPRPRPRPTHRPRP | 0.46
35 | RRIRKRPPRLPRPRPRPPKFPRP | 0.514
36 | RRIRKRPPRLPRPRPRPTKIPRP | 0.269
37 | RRIRMRPPRLPRPRPRPAIEPRP | 0.112
38 | RRIRLRPPRLPRPRPRPHPQPRP | 0.0301
39 | RRIRNRPPRLPRPRPRPPVAPRP | 0.239
40 | RRIRKRPPRLPRPRPRPQGHPRP | 0.0492
41 | RRIRLRPPRLPRPRPRPDPIPRP | 0.0451
42 | RRIRDRPPRLPRPRPRPRTFPRP | -0.0632
43 | RRIRNRPPRLPRPRPRPFRVPRP | -0.17
44 | RRIRCRPPRLPRPRPRPSMCPRP | -0.14
45 | RRIRFRPPRLPRPRPRPDCVPRP | -0.0904
46 | RRIRGRPPRLPRPRPRPRQHPRP | 0.305
47 | RRIRCRPPRLPRPRPRPQHQPRP | -0.145
48 | RRIRSRPPRLPRPRPRPIHSPRP | -0.567
49 | RRIRERPPRLPRPRPRPAPPPRP | 0.422
50 | RRIRIRPPRLPRPRPRPYQFPRP | -0.141

Row | Sequence | shrunken log2 fold change
51 | RRIRVRPPRLPRPRPRPAASPRP | 0.267
52 | RRIRGRPPRLPRPRPRPYEDPRP | -0.017
53 | RRIRYRPPRLPRPRPRPIGRPRP | -0.0417
54 | RRIRKRPPRLPRPRPRPIGKPRP | 0.0962
55 | RRIRWRPPRLPRPRPRPQFKPRP | -0.0678
56 | RRIRIRPPRLPRPRPRPFANPRP | -0.0225
57 | RRIRYRPPRLPRPRPRPKYDPRP | -0.324
58 | RRIRHRPPRLPRPRPRPIWMPRP | -0.0859
59 | RRIRKRPPRLPRPRPRPPIEPRP | 0.223
60 | RRIRIRPPRLPRPRPRPPDNPRP | -0.368
61 | RRIRKRPPRLPRPRPRPECMPRP | 1.58
62 | RRIRYRPPRLPRPRPRPWSLPRP | 0.0143
63 | RRIRPRPPRLPRPRPRPRFFPRP | 0.211
64 | RRIRNRPPRLPRPRPRPYGNPRP | -0.287
65 | RRIRFRPPRLPRPRPRPYWGPRP | -0.186
66 | RRIRWRPPRLPRPRPRPGLYPRP | -0.036
67 | RRIRQRPPRLPRPRPRPHWRPRP | -0.374
68 | RRIRLRPPRLPRPRPRPNFMPRP | -0.117
69 | RRIRERPPRLPRPRPRPTYEPRP | -1.47
70 | RRIRMRPPRLPRPRPRPNSHPRP | -0.451
71 | RRIRERPPRLPRPRPRPKFTPRP | -0.147
72 | RRIRDRPPRLPRPRPRPGLPPRP | 0.245
73 | RRIRARPPRLPRPRPRPCWCPRP | 0.721
74 | RRIRRRPPRLPRPRPRPQTNPRP | 0.257
75 | RRIRVRPPRLPRPRPRPPSWPRP | 0.34

Row | Sequence | shrunken log2 fold change
76 | RRIRERPPRLPRPRPRPRVCPRP | 0.0408
77 | RRIRVRPPRLPRPRPRPAPSPRP | 0.342
78 | RRIRSRPPRLPRPRPRPYFVPRP | -1.14
79 | RRIRARPPRLPRPRPRPAVQPRP | -0.0122
80 | RRIRHRPPRLPRPRPRPAKAPRP | 0.0344
81 | RRIRRRPPRLPRPRPRPKPPPRP | 0.735
82 | RRIRTRPPRLPRPRPRPWQYPRP | 0.0126
83 | RRIRKRPPRLPRPRPRPNRHPRP | -0.0212
84 | RRIRWRPPRLPRPRPRPVETPRP | -0.0256
85 | RRIRQRPPRLPRPRPRPNAIPRP | -0.393
86 | RRIRGRPPRLPRPRPRPFKQPRP | 0.13
87 | RRIRMRPPRLPRPRPRPYGCPRP | -0.341
88 | RRIRCRPPRLPRPRPRPVEEPRP | -0.0384
89 | RRIRYRPPRLPRPRPRPEQKPRP | 0.0039
90 | RRIRSRPPRLPRPRPRPTLKPRP | -0.139
91 | RRIRIRPPRLPRPRPRPWTFPRP | 0.0921
92 | RRIRDRPPRLPRPRPRPDNAPRP | -0.0954
93 | RRIRSRPPRLPRPRPRPSVDPRP | 0.0566
94 | RRIRCRPPRLPRPRPRPDFHPRP | -0.685
95 | RRIRDRPPRLPRPRPRPPGEPRP | -0.0136
96 | RRIRFRPPRLPRPRPRPYFQPRP | -1.44
97 | RRIRPRPPRLPRPRPRPAHLPRP | 0.317
98 | RRIRTRPPRLPRPRPRPLQFPRP | -0.497
99 | RRIRWRPPRLPRPRPRPDYDPRP | -0.246
100 | RRIRIRPPRLPRPRPRPNSDPRP | -0.267

Row | Sequence | shrunken log2 fold change
101 | RRIRQRPPRLPRPRPRPDIIPRP | -0.0199
102 | RRIRMRPPRLPRPRPRPFPFPRP | -0.356
103 | RRIRSRPPRLPRPRPRPLYVPRP | -0.467
104 | RRIRERPPRLPRPRPRPVELPRP | -0.0276
105 | RRIRSRPPRLPRPRPRPNHFPRP | -0.21
106 | RRIRYRPPRLPRPRPRPCRYPRP | -0.212
107 | RRIRKRPPRLPRPRPRPHPGPRP | 0.293
108 | RRIRLRPPRLPRPRPRPAATPRP | 0.379
109 | RRIRWRPPRLPRPRPRPLKQPRP | 0.206
110 | RRIRSRPPRLPRPRPRPEFEPRP | 0.731
111 | RRIRDRPPRLPRPRPRPIELPRP | 0.0698
112 | RRIRPRPPRLPRPRPRPRLWPRP | 0.917
113 | RRIRPRPPRLPRPRPRPFVKPRP | -0.133
114 | RRIRCRPPRLPRPRPRPEIEPRP | -0.00676
115 | RRIRDRPPRLPRPRPRPLVLPRP | 0.176
116 | RRIRCRPPRLPRPRPRPMPGPRP | 0.0112
117 | RRIRTRPPRLPRPRPRPTCGPRP | -0.0204
118 | RRIRYRPPRLPRPRPRPPHTPRP | -0.656
119 | RRIRMRPPRLPRPRPRPEVLPRP | -0.0436
120 | RRIRARPPRLPRPRPRPGVFPRP | 0.502
121 | RRIRQRPPRLPRPRPRPPKWPRP | 0.136
122 | RRIRHRPPRLPRPRPRPVSPPRP | 0.183
123 | RRIRFRPPRLPRPRPRPCAGPRP | -0.177
124 | RRIRLRPPRLPRPRPRPFDNPRP | -0.0289
125 | RRIRCRPPRLPRPRPRPMNKPRP | -0.32

Row | Sequence | shrunken log2 fold change
126 | RRIRWRPPRLPRPRPRPFWMPRP | -0.235
127 | RRIRWRPPRLPRPRPRPSQTPRP | 0.657
128 | RRIRWRPPRLPRPRPRPYDTPRP | -0.495
129 | RRIRRRPPRLPRPRPRPTLQPRP | 0.678
130 | RRIRDRPPRLPRPRPRPYMYPRP | -0.194
131 | RRIRGRPPRLPRPRPRPNKYPRP | -0.0952
132 | RRIRHRPPRLPRPRPRPESFPRP | -0.0018
133 | RRIRKRPPRLPRPRPRPGMYPRP | 0.102
134 | RRIRLRPPRLPRPRPRPLCVPRP | 0.688
135 | RRIRPRPPRLPRPRPRPHHKPRP | -0.647
136 | RRIRWRPPRLPRPRPRPWYMPRP | -0.885
137 | RRIRHRPPRLPRPRPRPPGYPRP | 0.0632
138 | RRIRYRPPRLPRPRPRPNAPPRP | -0.228
139 | RRIRMRPPRLPRPRPRPIPFPRP | 0.146
140 | RRIRPRPPRLPRPRPRPPDGPRP | 0.067
141 | RRIRHRPPRLPRPRPRPHNCPRP | -0.0289
142 | RRIRARPPRLPRPRPRPEMDPRP | 0.41
143 | RRIRGRPPRLPRPRPRPDIKPRP | 0.547
144 | RRIRPRPPRLPRPRPRPCSIPRP | -0.232
145 | RRIRMRPPRLPRPRPRPVKGPRP | 0.0743
146 | RRIRYRPPRLPRPRPRPWSAPRP | -0.237
147 | RRIRMRPPRLPRPRPRPGTLPRP | -0.02
148 | RRIRWRPPRLPRPRPRPCLEPRP | 0.012
149 | RRIRMRPPRLPRPRPRPAMYPRP | 2.95
150 | RRIRGRPPRLPRPRPRPNRIPRP | 0.281
